{"source": "paper doi:10.1101/2024.05.23.595439", "key": {"[1]": {"biological_target": "T1, SSF (full-length) (Escherichia coli F plasmid, UniProt P18310 1-179)", "T1 sequence": "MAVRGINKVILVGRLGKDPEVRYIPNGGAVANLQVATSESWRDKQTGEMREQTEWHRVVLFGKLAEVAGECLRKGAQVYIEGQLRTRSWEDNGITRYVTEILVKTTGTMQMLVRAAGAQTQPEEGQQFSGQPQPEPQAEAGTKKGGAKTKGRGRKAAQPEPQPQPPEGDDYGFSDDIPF", "experiment": "MST"}, "[2]": {"biological_target": "SSB (full-length) (Escherichia coli, UniProt P0AGE0 1-178)", "sequence (P0AGE0 whole entry)": "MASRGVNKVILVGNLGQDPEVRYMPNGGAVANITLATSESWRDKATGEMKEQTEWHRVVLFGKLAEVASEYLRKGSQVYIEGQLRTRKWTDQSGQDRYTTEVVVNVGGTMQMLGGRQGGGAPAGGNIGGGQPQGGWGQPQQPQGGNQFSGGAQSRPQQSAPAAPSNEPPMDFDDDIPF", "experiment": "MST"}}}
{"binder": "GGCAAATTACTCCTGTAATTTGCC (structured_DNA)", "note": "[hairpin dsDNA]", "values": [{"measurement": "Kd", "setting": "[1]", "value": 45.3, "unit": "µM"}, {"measurement": "binding result", "setting": "[2]", "value": "no binding"}]}
